Measurements: PMC11560936
Like-named read-outs stand apart in the source and are kept apart here.

Tests used:
Assay in all cases: ITC
[1] = molecular target: Penaeus monodon Rab7 wild type (PmRab7-WT) (Penaeus monodon) (UniProt Q00P14)
[2] = molecular target: Penaeus monodon Rab7 wild type (PmRab7-WT) (Penaeus monodon) (UniProt Q00P14); remark: listed apart in the source
[3] = molecular target: Penaeus monodon Rab7 wild type (PmRab7-WT) (Penaeus monodon) (UniProt Q00P14); remark: listed apart in the source
[4] = molecular target: Penaeus monodon Rab7 L129F mutant (PmRab7-L129F) (Penaeus monodon) (UniProt Q00P14)
[5] = molecular target: Penaeus monodon Rab7 wild type (PmRab7-WT) (Penaeus monodon) (UniProt Q00P14); remark: listed apart in the source
[6] = molecular target: Penaeus monodon Rab7 T22N mutant (PmRab7-T22N) (Penaeus monodon) (UniProt Q00P14)
[7] = molecular target: Penaeus monodon Rab7 Q67L mutant (PmRab7-Q67L) (Penaeus monodon) (UniProt Q00P14)
[8] = molecular target: Penaeus monodon Rab7 wild type (PmRab7-WT) (Penaeus monodon) (UniProt Q00P14); remark: listed apart in the source

## White spot syndrome virus envelope protein VP28 with His6 tag (VP28-His6) (natural protein)
[1]
  Kd: 826 nM
  dH: -17 kcal/mol
  stoichiometry N: 0.738 VP28:Rab7
[2]
  Kd: 352 nM
  dH: -7.23 kcal/mol
  stoichiometry N: 0.682 VP28:Rab7
[3]
  Kd: 1920 nM
  dH: -20.2 kcal/mol
  stoichiometry N: 0.703 VP28:Rab7
[4]
  Kd: 128 nM
  dH: -25.7 kcal/mol
  stoichiometry N: 0.519 VP28:Rab7
[5]
  Kd: 22.5 nM
  dH: -22.1 kcal/mol
  stoichiometry N: 0.543 VP28:Rab7
[6]
  Kd: 334 nM
  dH: -20 kcal/mol
  stoichiometry N: 0.625 VP28:Rab7
[7]
  Kd: 1990 nM
  dH: -33 kcal/mol
  stoichiometry N: 0.582 VP28:Rab7
[8]
  Kd: 924 nM
  dH: -15.4 kcal/mol
  stoichiometry N: 0.795 VP28:Rab7
